How the values were obtained:
Assay in all cases: SPR; KD relative to WT C2;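 also: biacore SPR at 37 °C, anti-C2 mAbs captured on an anti-human IgG chip, alanine or serine C2 surface mutants tested, KD from 1:1 fit compared with wild-type C2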
[1] = molecular target: T1, human C2 S456A (human, UniProt P06681 21-752)
T1 sequence: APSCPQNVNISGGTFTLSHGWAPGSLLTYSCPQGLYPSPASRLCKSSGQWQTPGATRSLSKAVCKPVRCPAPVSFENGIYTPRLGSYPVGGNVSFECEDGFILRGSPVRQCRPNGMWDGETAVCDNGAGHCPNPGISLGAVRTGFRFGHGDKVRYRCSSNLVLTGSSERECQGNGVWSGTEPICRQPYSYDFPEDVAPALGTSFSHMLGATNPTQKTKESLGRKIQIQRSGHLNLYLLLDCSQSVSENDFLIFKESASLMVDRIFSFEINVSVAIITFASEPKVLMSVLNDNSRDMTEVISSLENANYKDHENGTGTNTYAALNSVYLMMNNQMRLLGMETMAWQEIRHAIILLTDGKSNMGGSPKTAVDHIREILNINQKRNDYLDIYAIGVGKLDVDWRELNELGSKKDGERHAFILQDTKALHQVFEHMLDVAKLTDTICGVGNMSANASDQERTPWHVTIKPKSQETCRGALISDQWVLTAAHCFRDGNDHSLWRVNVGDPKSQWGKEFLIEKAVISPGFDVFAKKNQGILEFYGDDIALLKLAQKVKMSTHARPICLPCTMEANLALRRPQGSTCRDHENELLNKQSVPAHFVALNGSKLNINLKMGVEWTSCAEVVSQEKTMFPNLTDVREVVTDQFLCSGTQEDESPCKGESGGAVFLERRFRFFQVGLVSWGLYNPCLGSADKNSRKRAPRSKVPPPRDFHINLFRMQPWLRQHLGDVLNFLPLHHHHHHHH

[2] = molecular target: T2, human C2 N471A (human, UniProt P06681 21-752)
T2 sequence: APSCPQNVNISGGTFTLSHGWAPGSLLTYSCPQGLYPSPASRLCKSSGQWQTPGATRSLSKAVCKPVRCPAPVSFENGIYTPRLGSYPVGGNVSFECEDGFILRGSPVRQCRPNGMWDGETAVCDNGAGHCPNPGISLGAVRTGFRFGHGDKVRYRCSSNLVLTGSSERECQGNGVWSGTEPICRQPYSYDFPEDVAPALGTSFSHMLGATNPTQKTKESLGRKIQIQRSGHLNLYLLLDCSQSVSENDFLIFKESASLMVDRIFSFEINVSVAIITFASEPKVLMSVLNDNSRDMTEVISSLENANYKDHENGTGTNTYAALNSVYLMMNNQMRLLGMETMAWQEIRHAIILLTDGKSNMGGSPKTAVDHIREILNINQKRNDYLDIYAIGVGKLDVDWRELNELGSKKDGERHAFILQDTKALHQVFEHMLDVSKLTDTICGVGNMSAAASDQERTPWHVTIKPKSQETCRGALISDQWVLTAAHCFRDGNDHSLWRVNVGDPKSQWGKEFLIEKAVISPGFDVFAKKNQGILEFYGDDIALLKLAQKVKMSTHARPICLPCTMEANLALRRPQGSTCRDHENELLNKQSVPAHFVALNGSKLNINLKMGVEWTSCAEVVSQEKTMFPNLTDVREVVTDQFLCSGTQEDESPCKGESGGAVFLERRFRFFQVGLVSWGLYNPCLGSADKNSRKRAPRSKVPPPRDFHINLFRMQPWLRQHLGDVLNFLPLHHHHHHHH

[3] = molecular target: T3, human C2 N325A (human, UniProt P06681 21-752)
T3 sequence: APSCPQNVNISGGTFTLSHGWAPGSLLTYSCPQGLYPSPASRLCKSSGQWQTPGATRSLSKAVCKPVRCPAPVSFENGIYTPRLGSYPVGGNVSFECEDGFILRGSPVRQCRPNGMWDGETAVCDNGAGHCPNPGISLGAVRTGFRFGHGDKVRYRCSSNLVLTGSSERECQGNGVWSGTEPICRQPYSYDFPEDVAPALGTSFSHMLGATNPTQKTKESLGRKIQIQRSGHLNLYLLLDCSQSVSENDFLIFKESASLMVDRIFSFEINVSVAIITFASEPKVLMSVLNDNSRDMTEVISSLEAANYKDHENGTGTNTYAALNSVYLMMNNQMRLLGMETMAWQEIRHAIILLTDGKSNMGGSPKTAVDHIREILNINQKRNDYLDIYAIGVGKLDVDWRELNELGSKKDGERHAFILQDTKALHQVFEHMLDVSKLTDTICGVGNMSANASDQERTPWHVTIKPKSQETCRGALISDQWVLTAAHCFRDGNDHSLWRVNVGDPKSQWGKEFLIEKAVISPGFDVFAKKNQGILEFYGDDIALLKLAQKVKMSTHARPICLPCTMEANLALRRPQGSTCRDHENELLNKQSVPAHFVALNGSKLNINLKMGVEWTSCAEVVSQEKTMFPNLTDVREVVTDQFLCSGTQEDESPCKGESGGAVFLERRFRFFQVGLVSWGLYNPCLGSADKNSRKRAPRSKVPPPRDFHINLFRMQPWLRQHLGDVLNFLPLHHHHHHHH

[4] = molecular target: T4, human C2 A436S (human, UniProt P06681 21-752)
T4 sequence: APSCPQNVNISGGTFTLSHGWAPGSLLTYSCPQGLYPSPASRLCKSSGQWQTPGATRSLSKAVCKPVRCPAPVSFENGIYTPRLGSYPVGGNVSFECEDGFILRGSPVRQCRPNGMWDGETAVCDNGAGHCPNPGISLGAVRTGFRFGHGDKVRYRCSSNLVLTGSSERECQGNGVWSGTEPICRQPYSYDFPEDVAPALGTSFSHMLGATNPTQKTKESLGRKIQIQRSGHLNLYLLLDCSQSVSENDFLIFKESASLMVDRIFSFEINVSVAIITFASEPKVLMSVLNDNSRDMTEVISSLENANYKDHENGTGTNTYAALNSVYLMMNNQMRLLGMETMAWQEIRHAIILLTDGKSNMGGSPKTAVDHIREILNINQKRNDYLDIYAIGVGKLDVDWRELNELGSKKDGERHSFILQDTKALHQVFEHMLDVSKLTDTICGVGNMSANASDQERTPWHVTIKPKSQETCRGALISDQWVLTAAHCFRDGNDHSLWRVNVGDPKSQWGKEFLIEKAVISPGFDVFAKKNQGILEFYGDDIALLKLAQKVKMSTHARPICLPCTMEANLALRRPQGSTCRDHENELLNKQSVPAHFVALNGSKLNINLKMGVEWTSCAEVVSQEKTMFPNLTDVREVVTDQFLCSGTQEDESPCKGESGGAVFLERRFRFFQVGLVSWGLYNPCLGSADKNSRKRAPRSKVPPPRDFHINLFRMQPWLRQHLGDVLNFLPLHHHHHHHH

Fold diff [1]: 5 fold
Fold diff [2]: 1 fold
Fold diff [3]: 11 fold
Fold diff [4]: 1 fold
B1: RF16-214 (antibody, V domains shown)
VH: EVQLLESGGGLVQPGGSLRLSCAASGFTFSWYQMMWVRQAPGKGLEWVSRIYPSGGGTAYADSVKGRFTISRDNSKNTLYLQMNSLRAEDTAVYYCARDAGYGDNWGQGTLVTVSS
VL: QSALTQPPSVSVSPGQTASITCSGDKLGEKYASWYQQKAGQSPVMVIYQDRKRPSGIPERFSGSNSGNTATLTISGTQAMDEADYYCQAWDTRAVVFGGGTKLTVLG

Reference: patent US20220332804A1 (CSL INNOVATION, published 2022)
